From US20260055205A1 (published 2026) come the findings set out here.

Numbering of substitutions follows the chain as printed.

The target of one assay is T1, human PSMA (human, UniProt Q04609 44-750, limits assumed).
T1 construct: also called huPSMA; hPSMA
Description: binding screen.

Another assay has as its target T2, human CD3 epsilon (human, UniProt P07766 23-126, limits assumed).
T2 construct: also called huCD3e
The assay is described as follows: Octet, crude lysate. The protocol:
Pool 2 consisted of paTCE molecules each containing PSMA.262 and one of 64 CD3.23 mutation combination variants. Stability and affinity of the individually expressed molecules in the form of crude lysate was evaluated by Octet. […] The binding of these anti-CD3 molecules (CD3.227, CD3.228, CD3.229 and CD3.230) to human and cynomolgus CD3 was measured by Octet and the Tm was measured by Differential Scanning Fluorimetry. All variants were paired with PSMA.262 except for CD3.23 which was paired with PSMA.5.

T2 sequence (P07766 23-126 limits assumed): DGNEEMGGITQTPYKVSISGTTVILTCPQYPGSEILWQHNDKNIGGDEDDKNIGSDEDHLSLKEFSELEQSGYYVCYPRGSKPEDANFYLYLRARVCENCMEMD
T1 sequence (Q04609 44-750 limits assumed): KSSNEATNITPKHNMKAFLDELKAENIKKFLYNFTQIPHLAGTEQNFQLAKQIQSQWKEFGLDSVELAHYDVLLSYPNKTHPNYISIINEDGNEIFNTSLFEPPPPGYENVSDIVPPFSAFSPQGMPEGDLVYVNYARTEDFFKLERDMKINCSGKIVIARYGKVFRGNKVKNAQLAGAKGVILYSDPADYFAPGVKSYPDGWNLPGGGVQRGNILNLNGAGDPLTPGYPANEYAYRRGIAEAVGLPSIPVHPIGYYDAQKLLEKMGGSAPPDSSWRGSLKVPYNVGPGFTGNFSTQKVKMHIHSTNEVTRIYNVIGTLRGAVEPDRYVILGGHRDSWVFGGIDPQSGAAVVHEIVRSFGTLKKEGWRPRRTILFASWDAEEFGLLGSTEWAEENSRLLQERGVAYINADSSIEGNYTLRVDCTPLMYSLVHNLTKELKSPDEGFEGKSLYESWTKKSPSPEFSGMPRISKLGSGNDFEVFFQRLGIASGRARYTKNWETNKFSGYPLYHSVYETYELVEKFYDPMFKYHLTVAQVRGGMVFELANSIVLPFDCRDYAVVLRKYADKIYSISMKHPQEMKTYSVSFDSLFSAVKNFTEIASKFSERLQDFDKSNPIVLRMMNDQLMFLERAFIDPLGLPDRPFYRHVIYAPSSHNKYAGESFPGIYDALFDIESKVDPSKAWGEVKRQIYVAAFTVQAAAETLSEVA

B1: PSMA.306 (bispecific antibody, V domains shown)
VH: QVQLVESGGGVVQPGRSLRLSCAASGRTFGIYVMGWFRQAPGKEREFVGAMSWSGSNRKVSDSVKGRFTISRDNSKNTLYLQMNSLRAEDTAVYYCAASNKLYGRTWYDFNESDYWGQGTQVTVSS
notes: TCE with CD3.23; also called AC3708
As to B1, in the assay with human PSMA, the affinity, expressed as Kd, was 10.4 nM.

B2: PSMA.307 (bispecific antibody, V domains shown)
VH: B1 VH with M34W
notes: TCE with CD3.23; also called AC3709
In the assay with human PSMA, B2 yielded a Kd of 6 nM.

B3: PSMA.316 (bispecific antibody, V domains shown)
VH: B1 VH with M51I, L102G
notes: TCE with CD3.23; also called AC3718
For the molecule B3, in the assay with human PSMA, the affinity, expressed as Kd, was 150 nM.

B4: PSMA.312 (bispecific antibody, V domains shown)
VH: B1 VH with M51I, A97G
notes: TCE with CD3.23; also called AC3714
With B4, binding in the assay with human PSMA was characterised by a dissociation constant (Kd) of 12 nM.

B5: PSMA.301 (bispecific antibody, V domains shown)
VH: B1 VH with M51I, Y95F
notes: TCE with CD3.23; also called AC3703
B5 came in with a Kd with human PSMA of 10 nM.

B6: PSMA.314 (bispecific antibody, V domains shown)
VH: B1 VH with M51I, L102D
notes: TCE with CD3.23; also called AC3716
In the case of B6, binding with human PSMA was put at a Kd of 69.9 nM.

B7: PSMA.320 (bispecific antibody, V domains shown)
VH: B1 VH with M51I, Y94G, A98G
notes: TCE with CD3.23; also called AC3722
In the case of B7, in the assay with human PSMA, the binding result is given as “no binding”.

B8: PSMA.323 (bispecific antibody, V domains shown)
VH: B1 VH with M51I, Y94T, A98G
notes: TCE with CD3.23; also called AC3725
B8: the binding result with human PSMA is reported as “no binding”.

B9: PSMA.305 (bispecific antibody, V domains shown)
VH: B1 VH with M34W, M51I
notes: TCE with CD3.23; also called AC3707
Take B9: the binding result with human PSMA is reported as “binds”.

B10: PSMA.313 (bispecific antibody, V domains shown)
VH: B1 VH with M51I, L102R
notes: TCE with CD3.23; also called AC3715
Consider B10, for which the binding result with human PSMA is on record as “no binding”.

B11: PSMA.317 (bispecific antibody, V domains shown)
VH: B1 VH with M51I, Y94A, A98G
notes: TCE with CD3.23; also called AC3719
In the case of B11, the binding result in the assay with human PSMA is recorded as “no binding”.

B12: PSMA.303 (bispecific antibody, V domains shown)
VH: B1 VH with Y95F
notes: TCE with CD3.23; also called AC3705
On to B12, for which, in the assay with human PSMA, binding was put at a Kd of 10.3 nM.

B13: PSMA.322 (bispecific antibody, V domains shown)
VH: B1 VH with M51I, Y94S, A98G
notes: TCE with CD3.23; also called AC3724
For B13, the binding result with human PSMA is recorded as “no binding”.

B14: PSMA.318 (bispecific antibody, V domains shown)
VH: B1 VH with M51I, Y94R, A98G
notes: TCE with CD3.23; also called AC3720
Regarding B14, the binding result in the assay with human PSMA is recorded as “no binding”.

B15: PSMA.319 (bispecific antibody, V domains shown)
VH: B1 VH with M51I, Y94N, A98G
notes: TCE with CD3.23; also called AC3721
Regarding B15, the binding result in the assay with human PSMA is “no binding”.

B16: PSMA.304 (bispecific antibody, V domains shown)
VH: B1 VH with M34W, Y95F
notes: TCE with CD3.23; also called AC3706
For the molecule B16, the Kd with human PSMA stood at 5.9 nM.

B17: PSMA.309 (bispecific antibody, V domains shown)
VH: B1 VH with M34W, Y95F, L102W
notes: TCE with CD3.23; also called AC3711
With B17, the Kd with human PSMA came out at 8.5 nM.

B18: PSMA.321 (bispecific antibody, V domains shown)
VH: B1 VH with M51I, Y94K, A98G
notes: TCE with CD3.23; also called AC3723
Take B18: the binding result with human PSMA is reported as “no binding”.

B19: PSMA.310 (bispecific antibody, V domains shown)
VH: B1 VH with M51I, A97G, A98G
notes: TCE with CD3.23; also called AC3712
Molecule B19 gave a Kd in the assay with human PSMA of 23.1 nM.

B20: PSMA.308 (bispecific antibody, V domains shown)
VH: B1 VH with M34W, L102W
notes: TCE with CD3.23; also called AC3710
In the assay with human PSMA, B20 had a Kd of 8.8 nM.

B21: PSMA.302 (bispecific antibody, V domains shown)
VH: B1 VH with M34W, M51I, Y95F
notes: TCE with CD3.23; also called AC3704
In the case of B21, the Kd with human PSMA is 2.8 nM.

B22: PSMA.315 (bispecific antibody, V domains shown)
VH: B1 VH with M51I, L102E
notes: TCE with CD3.23; also called AC3717
In turn, B22 returned a Kd with human PSMA of 24.2 nM.

B23: PSMA.311 (bispecific antibody, V domains shown)
VH: B1 VH with M51I, Y94D
notes: TCE with CD3.23; also called AC3713
In the case of B23, in the assay with human PSMA, the binding result is given as “no binding”.

B24: CD3.238 (bispecific antibody, V domains shown)
VH: EVQLVESGGGIVQPGGSLRLSCAASGFTFNTYAMNWVRQAPGKGLEWVARIRTKYNNYATTYADSVKDRFTISRDDSKNTVYLQMNSLKTEDTAVYYCVRHENFGNSYVSWFAHWGQGTLVTVSS
VL: ELVVTQEPSLTVSPGGTVTLTCRSSNGAVTSSNYANWVQQKPGQAPRGLIGGTNKRAPGTPARFSGSLLGGKAALTLSGVQPEDEAVYYCALWYPNLWVFGGGTKLTVL
notes: paTCE with PSMA.262; also called AC3669
As to B24, in the assay with human CD3 epsilon, the Kd was 23.1 nM.

B25: CD3.244 (bispecific antibody, V domains shown)
VH: B24 VH with A49G, T53S, Y58G, T61Y, D68G, V81L
VL: B24 VL
notes: paTCE with PSMA.262; also called AC3675
On to B25, for which the Kd in the assay with human CD3 epsilon is 43.6 nM.

B26: CD3.252 (bispecific antibody, V domains shown)
VH: B24 VH with A49G, T53S, Y55K
VL: B24 VL
notes: paTCE with PSMA.262; also called AC3683
For the molecule B26, the Kd with human CD3 epsilon turned out to be 22.9 nM.

B27: CD3.240 (bispecific antibody, V domains shown)
VH: B24 VH with T53S, Y55K
VL: B24 VL
notes: paTCE with PSMA.262; also called AC3671
In the case of B27, in the assay with human CD3 epsilon, the Kd was 16.5 nM.

B28: CD3.241 (bispecific antibody, V domains shown)
VH: B24 VH with T53S, Y55T
VL: B24 VL
notes: paTCE with PSMA.262; also called AC3672
For the molecule B28, the Kd in the assay with human CD3 epsilon amounted to 92.6 nM.

B29: CD3.239 (bispecific antibody, V domains shown)
VH: B24 VH with T53S, Y55R
VL: B24 VL
notes: paTCE with PSMA.262; also called AC3670
With B29, the Kd with human CD3 epsilon was found to be 29.9 nM.

B30: CD3.260 (bispecific antibody, V domains shown)
VH: B24 VH with A49G, T53S, Y55K, V81L
VL: B24 VL
notes: paTCE with PSMA.262; also called AC3691
For the molecule B30, the Kd with human CD3 epsilon amounted to 45.6 nM.

B31: CD3.263 (bispecific antibody, V domains shown)
VH: B24 VH with R19K, A49G, Y55R, T61Y, D68G
VL: B24 VL
notes: paTCE with PSMA.262; also called AC3694
Regarding B31, in the assay with human CD3 epsilon, the Kd is 7.2 nM.

B32: CD3.242 (bispecific antibody, V domains shown)
VH: B24 VH with A49G, T53S, N57D, T61Y, D68G, V81L
VL: B24 VL
notes: paTCE with PSMA.262; also called AC3673
Regarding B32, the Kd with human CD3 epsilon was 7.7 nM.

B33: CD3.253 (bispecific antibody, V domains shown)
VH: B24 VH with A49G, T53S, Y55T
VL: B24 VL
notes: paTCE with PSMA.262; also called AC3684
On to B33, for which the Kd in the assay with human CD3 epsilon stood at 79.9 nM.

B34: CD3.258 (bispecific antibody, V domains shown)
VH: B24 VH with A49G, V81L
VL: B24 VL
notes: paTCE with PSMA.262; also called AC3689
For B34, the Kd in the assay with human CD3 epsilon was 38 nM.

B35: CD3.246 (bispecific antibody, V domains shown)
VH: B24 VH with V81L
VL: B24 VL
notes: paTCE with PSMA.262; also called AC3677
B35: the Kd with human CD3 epsilon turned out to be 35.2 nM.

B36: CD3.264 (bispecific antibody, V domains shown)
VH: B24 VH with R19K, N30S, A49G, Y55R, T61Y, D68G
VL: B24 VL
notes: paTCE with PSMA.262; also called AC3695
Regarding B36, in the assay with human CD3 epsilon, the Kd was 4.5 nM.

B37: CD3.250 (bispecific antibody, V domains shown)
VH: B24 VH with A49G
VL: B24 VL
notes: paTCE with PSMA.262; also called AC3681
B37: in the assay with human CD3 epsilon, the Kd came to 31 nM.

B38: CD3.255 (bispecific antibody, V domains shown)
VH: B24 VH with A49G, T53S, Y55R, S87E
VL: B24 VL
notes: paTCE with PSMA.262; also called AC3686
For B38, the Kd with human CD3 epsilon worked out at 22.4 nM.

B39: CD3.248 (bispecific antibody, V domains shown)
VH: B24 VH with T53S, Y55K, V81L
VL: B24 VL
notes: paTCE with PSMA.262; also called AC3679
In the case of B39, the Kd with human CD3 epsilon is 49.2 nM.

B40: CD3.262 (bispecific antibody, V domains shown)
VH: B24 VH with A49G, T53S, Y55R, V81L, S87E
VL: B24 VL
notes: paTCE with PSMA.262; also called AC3693
For the molecule B40, in the assay with human CD3 epsilon, the Kd was 25.4 nM.

B41: CD3.247 (bispecific antibody, V domains shown)
VH: B24 VH with T53S, Y55R, V81L
VL: B24 VL
notes: paTCE with PSMA.262; also called AC3678
B41: in the assay with human CD3 epsilon, the Kd worked out at 28.9 nM.

B42: CD3.261 (bispecific antibody, V domains shown)
VH: B24 VH with A49G, T53S, Y55T, V81L
VL: B24 VL
notes: paTCE with PSMA.262; also called AC3692
Turning to B42, in the assay with human CD3 epsilon, the Kd came out at 97 nM.

B43: CD3.254 (bispecific antibody, V domains shown)
VH: B24 VH with A49G, S87E
VL: B24 VL
notes: paTCE with PSMA.262; also called AC3685
For the molecule B43, the dissociation constant Kd in the assay with human CD3 epsilon is 32.3 nM.

B44: CD3.257 (bispecific antibody, V domains shown)
VH: B24 VH with A49G, T53S, Y55T, S87E
VL: B24 VL
notes: paTCE with PSMA.262; also called AC3688
B44: the Kd in the assay with human CD3 epsilon came out at 159 nM.

B45: CD3.259 (bispecific antibody, V domains shown)
VH: B24 VH with A49G, T53S, Y55R, V81L
VL: B24 VL
notes: paTCE with PSMA.262; also called AC3690
In the case of B45, the Kd in the assay with human CD3 epsilon came to 29.4 nM.

B46: CD3.249 (bispecific antibody, V domains shown)
VH: B24 VH with T53S, Y55T, V81L
VL: B24 VL
notes: paTCE with PSMA.262; also called AC3680
Regarding B46, the Kd in the assay with human CD3 epsilon came out at 128 nM.

B47: CD3.245 (bispecific antibody, V domains shown)
VH: B24 VH with A49G, T53S, Y58G, T61Y, D68G, V81L, S87E
VL: B24 VL
notes: paTCE with PSMA.262; also called AC3676
As to B47, the Kd with human CD3 epsilon was 19.3 nM.
